Laboratory results reported in the supplement of paper PMC12042874.
± gives the uncertainty stated by the source.

assay: amyloid nucleation score (Sup35N fusion, yeast selection) (log enrichment); library NNK2; higher = more nucleation; inactive = no reads after selection
In short: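 Output and input plasmid inserts were sequenced by Illumina after psi-negative yeast carrying Sup35N fused to peptides of 20 random codons had been induced 24 hours with 100 μM copper sulfate and grown 7 days at 30°C on medium lacking adenine and uracil. The nucleation score is the DiMSum log enrichment of output over input reads, centred on the mode score of non-aggregating sequences. Sequences with under 100 input reads were excluded.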

VSYKWNGEWVRAPFDLQGCI and THMYCIMVYRRYSGSVGLGY are within error of each other in amyloid nucleation score: -0.464 ± 1.1 for the first, 0.127 ± 0.77 for the second.

Compared with CVREIYYVFCINSPVIAMDC, SFFNRESGIWWRGSSWFVLV is lower in amyloid nucleation score: 6.149 ± 0.038 for the first, -0.711 ± 0.48 for the second.

First: MFCGDSCSTVPCCVCICFLY
Second: GMIVLRCSRSCWFVQTKADG
The amyloid nucleation score of the first is higher: 5.02 ± 0.058 for the first, 1.27 ± 0.48 for the second.

Going from GTLPYFKN to AMYFRVVLA, the amyloid nucleation score rises from -0.641 ± 0.74 to 1.25 ± 0.31.

Compared with IESSVCPGRRPGLLPTLKAG, RGNMTLIETALAIVQSFSNH is higher in amyloid nucleation score: 0.901 ± 0.31 for the first, 9.064 ± 0.035 for the second.

Going from DRPALCSLCSETSVVNTLHL to KTYGGLLSLPVVLRMLEPRA, the amyloid nucleation score falls from 5.74 ± 0.064 to 0.319 ± 0.61.

Going from ISDSRLRKCVAPHSRDSGGH to VVRSRW, the amyloid nucleation score falls from 1.96 ± 0.19 to 0.372 ± 0.42.

KATPFAGTLRVYSTVTYCAI and VYSLYNDRYYC are within error of each other in amyloid nucleation score: 0.148 ± 1 for the first, -0.406 ± 0.31 for the second.

Compared with CMMLAPLCLSLL, NRNTTFLNYF is higher in amyloid nucleation score: -0.018 ± 1.1 for the first, 1.94 ± 0.25 for the second.

First: PKYTDCCFFNLILIGWSVFP
Second: ICSSPLRIISINKLSGTYNL
The amyloid nucleation score of the first is higher: 5.272 ± 0.052 for the first, 2.25 ± 0.14 for the second.

CGMRTEMTLGCLILAAGTWT and VEWEVMGVPDSKLDRGTGTV are within error of each other in amyloid nucleation score: 0.111 ± 0.5 for the first, 1.09 ± 0.53 for the second.

First: FGFWSPATVNNVRALIKDCV
Second: LSVRPASNELCAHVVVRFEC
The amyloid nucleation score of the first is lower: -0.409 ± 0.53 for the first, 3.66 ± 0.09 for the second.

GYYRFLSSLLELTV and TRIVS are within error of each other in amyloid nucleation score: -0.628 ± 0.76 for the first, -0.415 ± 0.25 for the second.

Compared with NQNNDHSTWSIFKLCEVGCL, TFIVMKIHYRFKVKLICQTC is lower in amyloid nucleation score: 8.986 ± 0.045 for the first, 0.681 ± 0.46 for the second.

GYCLSVTSR and VRRLLEAFWARKFFLVAITQ are within error of each other in amyloid nucleation score: 0.641 ± 0.74 for the first, -0.237 ± 0.79 for the second.

First: CTSASGTSPGWNKRGRNWGD
Second: RLSIHKSFVFDLTRSALSTM
The amyloid nucleation score of the first is higher: 5.52 ± 0.095 for the first, -0.293 ± 0.55 for the second.

Going from YYNSCKVN to FFLLVCVDGKTRRVD, the amyloid nucleation score rises from -1.35 ± 1.1 to 0.8 ± 0.15.

SQIRFWSRPRDCFGFLMRYV and SIPIIETGVWYVNNRVLMN are within error of each other in amyloid nucleation score: -0.852 ± 1 for the first, -1.43 ± 0.54 for the second.

First: SPCMCGYITINSLRPLLTFS
Second: YRATYVLRVAFSWVVSCPGD
The amyloid nucleation score of the first is higher: 5.797 ± 0.03 for the first, -0.377 ± 0.41 for the second.

SRVSLYQML and ETLPLNIILYACGEPHWFLL are within error of each other in amyloid nucleation score: -1.01 ± 0.34 for the first, -0.407 ± 0.29 for the second.

Compared with GFYIPRRAFS, SLCLRRCMKNKSKQMTMVWR is higher in amyloid nucleation score: -1.13 ± 0.25 for the first, -0.247 ± 0.53 for the second.

First: WHGVDVIVRLMVAHPLGRTS
Second: QLPFWGWNCMAKLTVTLHSR
The amyloid nucleation score of the first is higher: 4.36 ± 0.11 for the first, 1.22 ± 0.29 for the second.

Going from FGMRTGWREGGESCSTHERG to KVELYYWVSTLSVCSLALYS, the amyloid nucleation score rises from 1.14 ± 0.38 to 6.07 ± 0.084.

Compared with DMMCLLFGAKFNVQTGTHS, AWLWKMFNGTCNRWYINRPL is lower in amyloid nucleation score: 5.231 ± 0.052 for the first, -0.81 ± 0.76 for the second.

Compared with RMLYVFSFTHNKVVIFARTE, VISGGFMF is higher in amyloid nucleation score: -1.11 ± 0.76 for the first, 4.63 ± 0.069 for the second.

First: RLFNTYYSRSFASYGYWLHC
Second: WDCAWVLGLVAEGRLT
The amyloid nucleation score of the first is lower: 0.47 ± 0.16 for the first, 6.09 ± 0.039 for the second.

First: TYVLWSFTKYRPP
Second: STVTVGHNSHVCAFIF
The amyloid nucleation score of the first is higher: 1.02 ± 0.66 for the first, -0.326 ± 0.54 for the second.

Compared with YYVWVI, KWMLHSVR is higher in amyloid nucleation score: -0.698 ± 0.78 for the first, 0.772 ± 0.22 for the second.

First: NRHWRFG
Second: ANGVSILDFRKHATFWWWET
The amyloid nucleation score of the first is higher: 2.7 ± 0.11 for the first, -0.103 ± 0.29 for the second.

SLMKKTAGLFNVYVPSIGSS and DMNEDVGLGNKFC are within error of each other in amyloid nucleation score: 0.378 ± 0.37 for the first, 0.119 ± 0.54 for the second.

First: HLDYAGYIGDRSHTDFASGR
Second: YEVGHPYFDDNCRICSFWWK
The amyloid nucleation score of the first is lower: 0.519 ± 0.46 for the first, 1.82 ± 0.12 for the second.

Going from GFALYFCSEFMVSVCRCKHT to MGVSNIDIVSRILNPGAAAS, the amyloid nucleation score falls from 9.613 ± 0.065 to 1.36 ± 0.41.

SRIEHMACLRRP and TVFWGTMVGPQRGVVGLESF are within error of each other in amyloid nucleation score: 0.496 ± 0.66 for the first, 0.593 ± 0.74 for the second.

IRSNLTKKHLKIL and SLLDWYKSRQSLMGAMLHNC are within error of each other in amyloid nucleation score: -0.994 ± 0.63 for the first, -1.12 ± 0.44 for the second.

Compared with ANLRLYICWGFDKSVINIKS, YLKKVQWYRQAYFGA is lower in amyloid nucleation score: 6.908 ± 0.038 for the first, -0.694 ± 0.28 for the second.

RMVSYY and ALPAFELGEFNNADHSHDDN are within error of each other in amyloid nucleation score: -0.474 ± 0.56 for the first, -0.464 ± 1.1 for the second.

Compared with PKRLKSSYLD, FLTLATSTCGPACVW is higher in amyloid nucleation score: -0.208 ± 0.37 for the first, 6.99 ± 0.07 for the second.

FRLFVKNKGRELICDLWVCT and RSTQLNSGPTANK are within error of each other in amyloid nucleation score: -0.024 ± 1 for the first, 1.21 ± 0.41 for the second.

Work on MSPNLIMMHHCH yielded an amyloid nucleation score of 0.094 ± 0.41.

With YSCVDAYG the amyloid nucleation score was “inactive”.
With LNSSLLFHNLMVHH the amyloid nucleation score was “inactive”.
In the case of YLTNLNNCADKSNCW, the amyloid nucleation score is reported as “inactive”.
With AASNQMSQ the amyloid nucleation score was “inactive”.
With FLLSV the amyloid nucleation score was “inactive”.
In the case of TVLPAVCYGVLNSRFRVTME, the amyloid nucleation score is reported as “inactive”.
With KTNVMERCHFQRILCFGMW the amyloid nucleation score was “inactive”.
In the case of YGASRNWQKNSLVASEYQVG, the amyloid nucleation score is reported as “inactive”.
With NMGSYD the amyloid nucleation score was “inactive”.
